From the DeepSol protein solubility set

Assay: soluble on expression in E. coli; label from the status in PepcDB or PDB records

Sequence	soluble on expression in E. coli
MGSDKIHHHHHHMKITKVECIPVSMPLKKPLRLPNVTITKLDTLLLRLHTETGLVGIAESGDTSSWYRGESQASMVSMICDIFAPRILLGEDPCNIEKIVGAMDTLARDNNQAKGLVDCALHDLKGKVLNVPVYQLLGGRTRESAPLGWVLSAGEPDKVAEAALSAREAGFVAFKLKVGRGTFDNDVATAAAVRKALGDSARICLDANGSWNYEQALRTIRRLDAYRLDFVEQPLPHWDIEGMARLRQRIDTPVYADEAAQELHHLKEIAERRAADGVILKVQKVGGLLKAQRFLAVAQMFDLPVMCSTLIGSGVEACPTAHLWVANQWACQFISESTGPLAVHGVWNSEDIPQGADLALQGARFHRGHVSPGDGPGLGVELNEALLGQIRTEGRPARVVNL	not soluble
MGSDKIHHHHHHMKKALVIGGGFAGCSAAHLLSLQGGWDITVVESGPWLGGGCKTLWYGGHPYTFGPRHFLTQNVPVFDYLNKYCPLRRCNDHVFLTYVEKDAQFYNYPIHIDDVARMPEKDQINKELTEAKQLNGAGAAKDFEEYWLASIGRTLYDKFVNTYSKKMWMLDDNKVMDDFSWSPKGVALKEGPRQAWDTAISAYPIAPNGYDDYFEIATRAEGVKVLWTTIEQYDLPNKTVVIDGEKRTYDAIINTASPDLVMDNAFGELPYIGRDFIKFVLPIAHAFPKDVYFLYYASDEPFTRLVEYKQFTRINYDAESTIIGMEIPSKNGRYYPLPLKTEYERAQKYFDAMGENVFSIGRCGSYQYRVDVDDCIAQAMDSVEKLK	not soluble
MGSDKIHHHHHHMKKGILIETDNVTRLRAAVKQAEDTERGRPGMVAVWGEAGAGKTIAAHSLYAQRGGVFLRAMEGMSQHAFLQELCWEVKGTRPHGSHRCRADILRALEEEPATVYVDEADRLDLRRLEDLRDIHDITGCPVVLIGEQHLPGKLAERTRIDDRIPEEYRVPFSGITPRDVSLFALEAAEIVLTPGAAGLIHKQAKGNFRRIHNLMLSVESAARAHDTTEVDEALVRAAMPAARSSASRAPRRGQHA	not soluble
MGSDKIHHHHHHMKKIVERAPTVEEAIEKVVKKYGLGEGEYTVNVLEKGFHGIFGLFSKEAVVEVQITKAYFERRLKEFLTEILQVVDPEVKITVKSSGRSFFVDVESENAGRLIGKHGKTMGALQHIAMIFLNRLSDTKLNVILDMGDYREKRKKSLEKIVEEAVKKAISEKTKVVLDPMFSFERKIVHKLVRKHRGVISYSVGVEPYRRVVIEYSATRREGRRKHDIKESI	not soluble
MGSDKIHHHHHHMKKLRIAQVSPLIESVPPKKYGGTERVVYYLTEGLVERGHEVTLFASGDSATSARLIAPVKESLRLGRKIHSTTIMHMLMLSKVYEEMAGEFDIIHSHLEYLTLPYASCSRTPTVLTMHGRLDLPDYADILKRYSSMAWVSISDSQRAPVPDINWVGTIYHGYPENLFEFNPDPEDYFLYLGRFSEEKRPDEAIRLARACKIHLKLAAKIDTADKAYFKAKVEPLLDSPYIEYVGEVGDSRKGELLRNAKALLNTIDWPEPFGLVMIEALACGTPVIVRRCGSSPEVITHGVTGFICDSQLDFIRAIHNIGTISRIACRREFEQRFTLRHMVDNYETLYRKVIAASSATDSLSSLP	not soluble
MGSDKIHHHHHHMKKMKIGTQNQAFFPENILEKFRYIKEMGFDGFEIDGKLLVNNIEEVKAAIKETGLPVTTACGGYDGWIGDFIEERRLNGLKQIERILEALAEVGGKGIVVPAAWGMFTFRLPPMTSPRSLDGDRKMVSDSLRVLEQVAARTGTVVYLEPLNRYQDHMINTLADARRYIVENDLKHVQIIGDFYHMNIEEDNLAQALHDNRDLLGHVHIADNHRYQPGSGTLDFHALFEQLRADNYQGYVVYEGRIRAEDPAQAYRDSLAWLRTC	not soluble
MGSDKIHHHHHHMKKNGTTNSNGGNLGFEADLFKAADKLRGNMEPSDYKHVALGLIFLKYISDAFEARHQALLAEDPRAAEDRDEYLADNVFWVPKEARWSHLRANARRPEIGLLIDEAMRAIEKENESLKGVLPKDYARPALNKVMLGELIDLISGIALGEEGDRSKDILGRVYEYFLGQFAGAEGKRGGEFYTPRSVVRVLVEMLEPYHGRVYDPCCGSGGMFVQSEKFVQEHGGRIGDIAIYGQESNYTTWRLCKMNLAVRGIDADIRWNNEGSFHKDELRDLKADFILANPPFNISDWGGERLREDVRWSFGVPPVGNANYAWLQHIHHHLAPNGTAGVVLANGSMSSNQSGEGEIRKAMVEADVVDCMVALPGQLFYSTQIPACLWFLARNKNPGKGLRDRRGQVLFIDARKLGVLVDRTRRELTDAEIQKIADTYHAWRGEPDAGEYQDVPGFCKSATLEEIRKHGFVLTPGRYVGAAQQEDDGEPFEEKMARLAAQWREQRAAAAKLDAAIEANLKELGYGG	not soluble
MGSDKIHHHHHHMKLANQFNIAITPSGGRTGLSAGAVATNGEIVISMDKMNQILEFFPADRMVRVQAGVVTEQLQNYAEEQGMYYPVDFASAGSSQIGGNIGTNAGGIKVIKYGMTRNRVLGLTVVTGKGDILRLNKGMIKNATGYALQHLFIGGEGTLGLVTEAEIKLERQPQNLQVLVLGVPDFDAVMPVLHAFQKDIDLTAFEFFGELAMQKVLDRGHVQRPFETQCPFYVLLEFEAPYEPIIDKAMEIFEHCMEQGWVLDGVMSQSLDQVESLWRLREDISESIAPFIPYKNDISVLITHVPAFIREIDAIVQENYPDFEICWFGHIGDGNLHLNILKPENLTKDEFFAKCQVVNKYVFDTVKKYDGSISAEHGVGMTKKPYLEYSRSAEEIEYMKALKKVFDPKGIMNPGKLFDL	not soluble
MGSDKIHHHHHHMKMHVAFVHRRGFGQFAALARHLAEAGNEVTLVTETVDQRIPSVRVVRHRAEPGPQPNPHIARHLGVPDHHVRIGHRVAETFDAMGRLGQSPDIVLGHIGWGSMMFVKDVLPRVPALGYCEFFYRSEGADVGFAPDDRPDSETRKRLRLRNIAQLLSLEAMDGGISPTNWQKSLYPADARQRIAVCHEGVDTRRFRPDPAASLKLPDGRVLKAGDPVVTFVARDLEPYRGFPQALEAAAKVVRRHPDALFVFVGGDGVSYGAPPPGGGSWKDHLLASLDVPRERLIFPGVVPHSVLRQLFQISAAHLYLTYPFVLSWSVLEAMACGALVIGSDTAPVQEVIRSGRNGLLVPFFDTDALAETIVGALNRPDNFRELRGAARRTVEQRFRLDDCLARQLTLIGNLTGRNAAQAKETQFV	not soluble
MGSDKIHHHHHHMKMNHLDIAKEALVAQAQAVAKLADRLDGQFQSAVDLILACEGRTVVCGMGKSGLIGKKMVATFASTGTPSFFLHPAEAFHGDLGMLKPVDVLVLISYSGETEELIKLIPSLKSFGNKFIAMTGSGNSTLAKHADIWLDISVDREVCPNNLAPTTSTLATMAMGDALAVALITANQFKPMDFARYHPGGSLGRKLLTRVADVMHSPAPIVSPASSFQDCLLMMTQSRLGLAMVMDGNELVGIVTDGDLRRALLKNNQVIHASVTEFMTLNPHTIPADCRVSVAEAYMLENKIRALAVVDDCGAIVGVVEIFDGNPVA	not soluble
MGSDKIHHHHHHMKNALIQSGPDTTGRRPSRKVLIYGLNYAPELTGIGKYSAEMAESLADVGYEVRVICAPPYYPEWRIGAGHSAWRYRTEQRAAVRIQRAPVWVPSRPSGLKRLLHLASFAVSSLPTVFAQLFWRPDIVIAVAPSLMNIPAALMFGKMARARTWLHIQDYEVDAAFELGMLKGKRLRQFALGVESWLMRRFDVVSTISARMIEHGRNKGVDSPRLFALPNWVDVNVIFPLDRPSLYRTALNIPDEAIVVLYSGNMGAKQGIEVLAQAAASLAHRSDIHFVLCGDGPYKVNLVEQCGHLANCTFLSLQPFDKLNDLLNVADIHVLPQRADAADLVMPSKLTGMLASGRSIIAMARAGTELFDVVSPRGVTVPPEDVQALVAAIENLADDVDQRTRLGAAARAYAETELSRRAVIERLDGRFQMLCDRVRGRSVFT	not soluble
MGSDKIHHHHHHMKNKAESLASSSASILTLGLGWFPKNPGGLERYMYELTHKLAANKDQIELCGVGLPEAERNSPIKLTNLASPDSAIWQRLWSIRTNFQKTRTNKPDAINLHFALYSFPLLDILPKGVPVTFNFHGPWASESQQEVVNKNLSLLIKHHLIEKNTYNHCDRFIVLSKAFGKILHDKYQVPWSKINIIPGGVDINWFQPNLSRQDACKQLGWPNNRRIIFTSRRLVHRTGVDKLLKALAIIKPRIPDVWLAIAGRGHIQAALQQQATELGLDDNVKFLGFLPDEQLPIAYQAAELTIMPSQSFEGFGLVIVESLACGTPVLCTPVGGMPEILSEFSPDLITTSTEASAIAEKLEQVLLGNIPIPSREACRHYAVTHYDWNQIAQQVRNVLLN	not soluble
MGSDKIHHHHHHMKNLFLFCRAGFEKECAAEIQQRAGELNVGGFVKANNNDAYVVYQCFEEDAADTLVKQLPLDSLIFARQMFAASDLLVDLPESDRISPIVAALSDVSKAGEVRVETPDTNEAKELSAFCRKFTVPLRQHLKKSGSLLAQENPKRPIIHVCFIGPGRAYVGYSYSNNSSPHFMGIPRLKMAADAPSRSSLKLDEAFGQFVPKEEQEERIRSGMNAVDLGACPGGWTYQLVRRGMFVSAVDNGPMDEKLMETGQVKHYREDGFRFEPQRKNIYWLVCDMVRPSSL	not soluble
MGSDKIHHHHHHMKNLIFKDSQFEFQTLRVLGSSASGAADIGEVVETAQRIKEGDFKSWCDEWSKTAKSLEESAEESYSKGHFISAKKAYLRAANYYRTAEFYLHENPNNPIIGELYEKSLRCFSYVMKLNKPAIEAVKIPYENTFLPAHYYKLQNSNGKAPVLIAMTGYDGTKEEFYGLAMTALEHGMNFLTFEGPGQGEAVRKQKLFFRYDYEKVVTPVIDYVISRKEVDQAKIILWGESLGGYLAPRAAAFEHRLAACVANSGVYDFFGGILRELGNNSREEFFSAARINPEEFDKNIYSIAKLNSKVRWGIYHGMYVFGVNSPHEYILKAEDFYLKDIAEKIKCPTLVIDSDNDGILGGQSKPLYDVLRCKKEYMFFTSENGAGYHCQVGAKLIGWERILSWIEDIIK	not soluble
MGSDKIHHHHHHMKNRIIEKIENALQTLKNGGLIIITDDENRESEGDMVGLAEYVTPKAVNTMVTNARGLLCVPMSAEIAQKLGLSPMVTNAEDAFGTAFTISTDAKTTKTGISAFDRAKTIQKLADPQAKFSEFYHPGHVFPLIAEEGGVLARGGHTEAAVDLAKLAGVRPVAYITEVLKKDGTMARRNTLKSLAEGMQMPLLTIEEIKIYRYMKDAGIVKSVAKVHLPTKYGEFEMEAFDTGAGQEPTLLLTKGSLSEVQPLLLRIHSECLTGDIFGSKRCDCGEQLERSLKEIQSRGRGALLYLRQEGRGIGLANKLKAYELQEQGMDTVEANLKLGFQADERHYGVAAAILRKKGITKVNLLTNNPDKIKQLETLGIKVEERVTIQIPARPENRSYLKVKKEKMHHLLKGMD	not soluble
MGSDKIHHHHHHMKNTEIRKNIFPVGFYDDIHPDFSVNFQMNRCYTMTNDDVMLKEMREISPSIHNYEEFIEKFLELYNKALNEGHKLRAAYYLRTAEFYMTADHPQKQNYRKQFISLMQEYFNISDEQPYKVPYENGFLPAYRFTSEAPKGTIVMFGGFDSYVEEMFKMALFLKEAGYDVVFFDGPGQGSALEDYKIPMTHEWEKPVKSILDYFELDDVTLLGISLGGYLTVRAAAFEKRVHRVIADDILSNFYEVVLNTLPSQLKEKVNSLMSDGNEQEVNILFKDLMKKSLMVEWAINQGMHITGSKTPYEFLNKILLYNTSKISEKLEQDVLLMAAQEDHYIPLNQFFDQSKSLINVRSLTTRMFTRKETAQNHCQSGNLGLAFEVIANWIEQIQK	not soluble
